The source of these data is patent publication US20250049939A1, “NOVEL FLT3 ANTIBODIES AND ANTIBODY-DRUG-CONJUGATES BASED THEREON, THERAPEUTIC METHODS AND USES THEREOF IN COMBINATION WITH TYROSINE KINASE INHIBITORS” (TUBULIS GmbH, priority 2021, published 2025).

In test [1] the test system is ITD mutant human FLT3 (hFLT3ITD). Description: Cell surface binding to Ba/F3 hFLT3ITD, flow cytometry. The text has this: FIG. 1: Evaluation of epitope specificity and internalization capability of anti-FLT3 monoclonal antibodies. (A) Affinity of seven anti-FLT3 monoclonal antibody (mab) clones to recombinant human FLT3 measured in enzyme-linked immunosorbent assay (ELISA) normalized to the binding of the antibodies to BSA control. […] (B) Schematic FLT3 receptor. Black arrows indicate common mutations and blue arrows indicate the three identified epitopes of seven anti-FLT3 antibodies analyzed in linear epitope mapping by PEPperPRINT. Figure was created with BioRender.com. (C) Binding and temperature induced internalization of anti-FLT3 antibodies in Ba/F3 cells expressing human wildtype FLT3. […] Remaining surface-bound antibody was detected in flow cytometry. […] MFI=mean fluorescence intensity. […] (D) Cell surface binding of 20D9 mab or control human IgG1 antibody to Ba/F3 cells stably expressing pMIY (Ba/F3-pMIY) empty vector (ev), human wildtype (hFLT3 wt) or ITD mutant human FLT3 (hFLT3ITD) was measured in flow cytometry. […] (E) Temperature induced internalization of 4B12 mab in MOLM-13 (FLT3 positive) cells after 30 min incubation at 37° C. compared to 4° C. and HL-60 (FLT3 negative) after 37° C. incubation assessed in immunofluorescence staining. […] (G) Cell surface binding of 20D9 mab or control hIgG1 antibody to Ba/F3-PMIY ev, hFLT3 wt or epitope mutant FLT3 (hFLT3/S50P/P54R) measured in flow cytometry. […]
Background: Flow cytometry measures light scatter and fluorescence of single cells or particles in a stream.

Another test deals with T1, human CD64 (Homo sapiens, UniProt P12314).
T1 construct: host or cells: Ba/F3 cells, retrovirally transduced with MSCV-IRES-YFP (pMIY) vector
Briefly: Cell surface binding to Ba/F3 human CD64, flow cytometry. Here is the method:
For antibody binding studies, cells were stained on ice with primary mouse, rat or human anti-FLT3 antibodies (in house) and secondary antibody Goat F(ab′)2 Anti-Human Ig-PE (2012-09), Goat Anti-Mouse IgG (H+L)-PE (1032-09) or Goat Anti-Rat IgG (H+L)-PE (3052-09) purchased from Southern Biotech. For internalization experiments, cells incubated with anti-FLT3 antibodies were washed and incubated for 30 min at 4° C. or 37° C. followed by staining with secondary antibody.
Murine FLT3 (OMu21985D, Genescript), human CD64 (RC207487), CD32 (RC205786) and CD16 (RC206429), were purchased from Origene. Cynomolgues monkey FLT3 gene was synthesized from XM_015439107.1 by Eurofins. The constructs were cloned into retroviral expression vector MSCV-IRES-YFP (pMIY) using the In-Fusion HD Cloning Plus Kit (Takara Bio, Saint-Germain-en-Laye, France). All FLT3 point mutations were generated using the QuikChange II XL Site-Directed Mutagenesis Kit (Agilent Technologies, Santa Clara, CA, USA) and correct sequence was confirmed by Sanger sequencing. […]
For FLT3 expression analysis, cells were stained on ice with primary mouse anti-FLT3-AF647 antibodies for 30 min. […] Binding and expression were subsequently measured at the flow cytometer (BD FACSCanto II) and the results were evaluated with FlowJo version 10.8.1.

Test [2] relates to FLT3 mutants FLT3/NPOS, FLT3/D835Y, FLT3/D835V, FLT3/NPOS D835Y, FLT3/NPOS N676K, FLT3/NPOS F6911, FLT3/NPOS F691L. Briefly: Cell surface binding to Ba/F3 FLT3ITD and TKD mutants. Details: species or system human. Here is the method: For FLT3 expression analysis, cells were stained on ice with primary mouse anti-FLT3-AF647 antibodies for 30 min. For antibody binding studies, cells were stained on ice with chimeric (20D9) or humanized anti-FLT3 antibodies (in house) or IgG1 control with or without Leu234Ala/Leu235Ala (LALA)-mutation in the Fc region and secondary antibody goat F(ab′)2 Anti-Human IgG-AF647 (2042-31) purchased from Southern Biotech for 30 min, respectively. Binding and expression were subsequently measured at the flow cytometer (BD FACSCanto II) and the results were evaluated with FlowJo version 10.8.1.

Test [3] has as its system FLT3 positive human cell lines. Briefly: Cytotoxicity in leukemia and lymphoma cell lines, 96 h resazurin. The class given is cell-based. The following applies: FLT3 positive and negative cell lines. The text has this: (A) Correlation of MFI of CD64 cell surface expression and MFI of FLT3 cell surface expression of myeloid human cell lines measure in flow cytometry. Expression data presented in Supplementary FIGS. 4A and B. Black line indicates simple linear regression with error interval. r=Pearson correlation coefficient; r^2=Coefficient of determination; p=p value from two tailed test with confidence interval of 95%. MFI=mean fluorescence intensity. (B,C,E,F) Assessment of cytotoxicity of ADCs in different human cell lines. Viability was determined after 96h treatment with different concentrations of ADCs by resazurin fluorescence and normalized to untreated control. Dashed line indicates 100 ng/ml drug concentration. Mean±s.d. of n=3 biological replicates. […] Black line indicates simple linear regression with error interval. (E) Treatment of FLT3 positive human cell lines with IgG1-ADC.

In test [4] the test system is PDX AML cells with FLT3-ITD mutation. Description: Ex vivo treatment of patient derived xenograft (PDX) samples. The class given is cell-based, human. In general terms: Xenograft models place foreign cells or tissue in a host animal.

T1 sequence (P12314 16-374): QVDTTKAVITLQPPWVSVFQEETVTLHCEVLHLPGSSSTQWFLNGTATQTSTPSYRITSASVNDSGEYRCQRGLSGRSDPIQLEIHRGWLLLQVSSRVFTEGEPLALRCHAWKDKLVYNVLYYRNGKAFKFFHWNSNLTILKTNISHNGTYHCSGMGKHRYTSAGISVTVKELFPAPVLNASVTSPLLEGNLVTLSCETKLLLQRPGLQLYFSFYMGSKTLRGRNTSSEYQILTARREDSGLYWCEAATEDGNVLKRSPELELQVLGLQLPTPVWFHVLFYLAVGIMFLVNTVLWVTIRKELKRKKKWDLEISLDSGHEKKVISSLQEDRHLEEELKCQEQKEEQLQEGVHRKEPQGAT

B1: 20D9: chimeric (rat variable regions, human IgG1) anti-FLT3 monoclonal antibody; VH SEQ ID NO: 5, VL SEQ ID NO: 6 (antibody, V domains shown)
VH: DVMLVESGGGLVQPGRSLKLSCVASGFTFNNYWMTWIRQAPGKGLEWIASITKTGGGTYYPDSVKGRFTISRDNAKSTLYLQMNSLRSEDTATYYCTTLQQLGVMDAWGQGASVTVSSA
VL: DVQMTQSPSVLSASVGDRITLNCKASQNINKELNWYQQKLGEAPKLLIYNTNNLQTGIPSRFSGSGSGTDYTLTISSLQPEDVATYFCFQHKSWPLTFGSGTKLEIKR
modifications: Clone 20D9, heavy chain variable region without a signal seqeunce; Clone 20D9, light chain variable region without a signal seqeunce
In the case of B1, the “Binding to Ba/F3 cell lines expressing FLT3-ITD” value in test [1] is “specific binding”. Moreover, the “Binding to Fc receptor CD64 via the IgG1 backbone” value with human CD64 is reported as “verified the binding”. Besides, in test [2], the “Binding to FLT3 with common mutations” value was “also binds to FLT3 with common mutations”. For the same molecule, the “Effect of unconjugated antibody on cell proliferation” value in test [3] was “did not impair cell proliferation”. Further, the “Ex vivo sensitivity of PDX cells” value in test [4] is given as “remained ineffective”.
